Molecular target: T1, glucocorticoid receptor (GR) ((MCF-7 breast cancer cells)) (UniProt P04150)
T1 sequence: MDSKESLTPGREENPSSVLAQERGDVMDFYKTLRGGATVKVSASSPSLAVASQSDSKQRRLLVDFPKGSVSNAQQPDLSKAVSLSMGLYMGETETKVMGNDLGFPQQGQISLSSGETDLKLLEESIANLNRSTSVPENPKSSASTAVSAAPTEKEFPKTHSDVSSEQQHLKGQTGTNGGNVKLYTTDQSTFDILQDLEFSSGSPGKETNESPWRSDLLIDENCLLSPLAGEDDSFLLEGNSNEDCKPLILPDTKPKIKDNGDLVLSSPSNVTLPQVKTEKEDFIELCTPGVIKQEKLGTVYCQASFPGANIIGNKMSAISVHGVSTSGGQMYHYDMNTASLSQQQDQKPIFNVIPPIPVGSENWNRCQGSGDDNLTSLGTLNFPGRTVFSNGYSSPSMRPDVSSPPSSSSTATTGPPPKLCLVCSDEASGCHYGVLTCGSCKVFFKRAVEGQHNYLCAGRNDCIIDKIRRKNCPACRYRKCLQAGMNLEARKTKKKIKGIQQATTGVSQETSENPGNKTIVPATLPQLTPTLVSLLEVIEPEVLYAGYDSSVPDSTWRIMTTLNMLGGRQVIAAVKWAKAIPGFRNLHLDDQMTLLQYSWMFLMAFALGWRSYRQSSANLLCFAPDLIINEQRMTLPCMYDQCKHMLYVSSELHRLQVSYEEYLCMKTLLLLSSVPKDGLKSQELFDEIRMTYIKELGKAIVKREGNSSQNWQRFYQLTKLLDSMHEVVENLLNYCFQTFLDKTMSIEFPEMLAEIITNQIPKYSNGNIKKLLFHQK
Test: EMSA supershift
Details: LightShift Chemiluminescent EMSA Kit (Thermo), 6% polyacrylamide gel, antibody 1:250, additional 30 min, buffer, salt, pH and temperature not stated

Sequence | binding signal (scale: fraction of G-probe supershift band intensity) | binding signal (fraction of G-probe band intensity) (dexamethasone-treated MCF-7 nuclear extract, anti-GR antibody, reference)
TTCTGATCTTTGTTTTACTTTTCTTGGCTTCTG (double strand) [rs28714259 A (risk) probe] | < 0.4 | 
TTCTGATCTTTGTTTTGCTTTTCTTGGCTTCTG (double strand) [rs28714259 G (major) probe] |  | 1

Reference: PMC9684507
